Laboratory results taken from patent US20120058906A1 (published 2012).
Where a chain is given by its changes, count along the chain named.

Key:
[1] = target: T1, rHuman Notch-1/Fc Chimera, CF (R&D Systems Cat#3647-TK) (human, UniProt P46531 19-526); assay: MSD ECL titration, Fab 2.3 nM, blank 234
T1 construct: Bought Fc chimera; Fc part of the bought chimera not given

[2] = target: T2, rHuman IGF-1 sR (insulin-like growth factor-1 soluble receptor), CF (R&D Systems Cat#391-GR) (human, UniProt P08069 31-932); assay: MSD ECL titration, Fab 2.3 nM, blank 234
T2 construct: Bought soluble receptor; also called IGF-R1

[3] = target: T3, Recombinant Human DLL4 (R&D Systems Cat#1506-D4/CF) (human, UniProt Q9NR61 27-524); assay: MSD ECL titration, Fab 2.3 nM, blank 234
T3 construct: Bought recombinant protein; also called rHuman DLL4; delta-like protein 4

[4] = target: T4, rHuman ErbB2/Fc Chimera, CF (R&D Systems Cat#1129-ER) (human, UniProt P04626 23-652); assay: MSD ECL titration, Fab 2.3 nM, blank 234
T4 construct: Bought Fc chimera; also called HER2/neu; Fc part of the bought chimera not given

[5] = target: T5, rHuman HGF R/c-MET/Fc Chimera, CF (R&D Systems Cat#358-MT/CF) (human, UniProt P08581 25-932); assay: MSD ECL titration, Fab 2.3 nM, blank 234
T5 construct: Bought Fc chimera; also called HGF R/Fc; Fc part of the bought chimera not given

[6] = target: T6, rHuman IGF-1 sR (insulin-like growth factor-1 soluble receptor), CF (R&D Systems Cat#391-GR) (human, UniProt P08069 31-932); assay: ECL (MSD multi-spot), antigen on plate, Fab 2 nM
T6 construct: Bought soluble receptor; also called IGF-R1

[7] = target: T7, rHuman P-Cadherin/Fc Chimera, CF (R&D Systems Cat#861-PC) (human, UniProt P22223 108-654); assay: ECL (MSD multi-spot), antigen on plate, Fab 2 nM
T7 construct: Bought Fc chimera; also called CDH3; not shown: Fc of the bought chimera

[8] = target: T8, rHuman Erythropoietin R/Fc Chimera, CF (R&D Systems Cat#963-ER) (human, UniProt P19235 25-250); assay: ECL (MSD multi-spot), antigen on plate, Fab 2 nM
T8 construct: Bought Fc chimera; also called EPO R/Fc; Epo R; not shown: Fc of the bought chimera
T8 sequence: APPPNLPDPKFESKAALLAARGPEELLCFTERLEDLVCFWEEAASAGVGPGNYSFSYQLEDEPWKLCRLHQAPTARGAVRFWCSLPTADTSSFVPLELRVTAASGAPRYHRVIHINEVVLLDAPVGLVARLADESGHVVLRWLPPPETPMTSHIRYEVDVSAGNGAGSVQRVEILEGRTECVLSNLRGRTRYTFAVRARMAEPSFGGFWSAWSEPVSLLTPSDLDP

[9] = target: T9, Recombinant Human DLL4 (R&D Systems Cat#1506-D4/CF) (human, UniProt Q9NR61 27-524); assay: ECL (MSD multi-spot), antigen on plate, Fab 2 nM
T9 construct: Bought recombinant protein; also called delta-like protein 4

[10] = target: T10, rHuman ErbB2/Fc Chimera, CF (R&D Systems Cat#1129-ER) (human, UniProt P04626 23-652); assay: ECL (MSD multi-spot), antigen on plate, Fab 2 nM
T10 construct: Bought Fc chimera; also called HER2/neu; not shown: Fc of the bought chimera

[11] = target: T11, rHuman EGF R/Fc Chimera, CF (R&D Systems Cat#344-ER) (human, UniProt P00533 25-645); assay: ECL (MSD multi-spot), antigen on plate, Fab 2 nM
T11 construct: Bought Fc chimera; also called ErbB-1; not shown: Fc of the bought chimera

[12] = target: T12, rHuman HGF R/c-MET/Fc Chimera, CF (R&D Systems Cat#358-MT/CF) (human, UniProt P08581 25-932); assay: ECL (MSD multi-spot), antigen on plate, Fab 2 nM
T12 construct: Bought Fc chimera; also called HGF R/Fc; not shown: Fc of the bought chimera

[13] = target: T13, rHuman Notch-1/Fc Chimera, CF (R&D Systems Cat#3647-TK) (human, UniProt P46531 19-526); assay: ECL (MSD multi-spot), antigen on plate, Fab 2 nM
T13 construct: Bought Fc chimera; not shown: Fc of the bought chimera

[14] = target: T14, rHuman CD44/Fc Chimera, CF (R&D Systems Cat#3660-CD) (human, UniProt P16070 21-220); assay: ECL (MSD multi-spot), antigen on plate, Fab 2 nM
T14 construct: Bought Fc chimera; not shown: Fc of the bought chimera

[15] = target: T15, rHuman Erythropoietin R/Fc Chimera, CF (R&D Systems Cat#963-ER) (human, UniProt P19235 25-250); assay: ECL (MSD Multi-Spot) binding assay, antigen spotted on plate; Fab 17 nM; blank spot 143
T15 construct: Bought Fc chimera; also called EPO R/Fc; Epo R; Fc part of the bought chimera not given
T15 sequence: T8 sequence

[16] = target: T16, rHuman ErbB2/Fc Chimera, CF (R&D Systems Cat#1129-ER) (human, UniProt P04626 23-652); assay: as above
T16 construct: Bought Fc chimera; also called HER2/neu; human epidermal growth factor 2 receptor; Fc part of the bought chimera not given

[17] = target: T17, rHuman EGF R/Fc Chimera, CF (R&D Systems Cat#344-ER) (human, UniProt P00533 25-645); assay: as above
T17 construct: Bought Fc chimera; also called epidermal growth factor receptor; Fc part of the bought chimera not given

[18] = target: T18, rHuman Notch-1/Fc Chimera, CF (R&D Systems Cat#3647-TK) (human, UniProt P46531 19-526); assay: as above
T18 construct: Bought Fc chimera; Fc part of the bought chimera not given

[19] = target: T19, rHuman IGF-1 sR (IGF-1 sR), CF (R&D Systems Cat#391-GR) (human, UniProt P08069 31-932); assay: as above
T19 construct: Bought soluble receptor; also called insulin-like growth factor-1 soluble receptor; IGF-R1
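Also: blank spot per well as comparator with Hit at signal to blank ratio of 4 or more.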

B1: Fab VH1-46_IGHD6-6*01_IGHJ1*01 & L6_IGKJ1*01 (Fab, V domains shown)
VH: QVQLVQSGAEVKKPGASVKVSCKASGYTFTSYYMHWVRQAPGQGLEWMGIINPSGGSTSYAQKFQGRVTMTRDTSTSTVYMELSSLRSEDTAVYYCAREEYSSSSAEYFQHWGQGTLVTVSS
VL: not shown
notes: Expressed in E. coli as Fab: heavy chain with CH1 plus Flag and His tags from Plasmid A, kappa light chain constant region from Plasmid C; also called Fab No. 1
- ECL signal [1]: 333
- ECL signal [2]: 231
- ECL signal [3]: 3060
- ECL signal [4]: 291
- ECL signal [5]: 253

B2: Fab VH1-46_IGHD6-6*01_IGHJ1*01_S102A_S103P_S104F & L6_IGKJ1*01_S28P (Fab, V domains shown)
VH: B1 VH with S102A, S103P, S104F
VL: EIVLTQSPATLSLSPGERATLSCRASQPVSSYLAWYQQKPGQAPRLLIYDASNRATGIPARFSGSGSGTDFTLTISSLEPEDFAVYYCQQRSNWPPWTFGQGTKVEIKR
notes: Fab
- ECL signal [6]: 205 ECL signal
- ECL signal [7]: 223 ECL signal
- ECL signal [8]: 251 ECL signal
- ECL signal [9]: 6100 ECL signal
- ECL signal [10]: 176 ECL signal
- ECL signal [11]: 352 ECL signal
- ECL signal [12]: 255 ECL signal
- ECL signal [13]: 307 ECL signal
- ECL signal [14]: 266 ECL signal

B3: Fab VH5-51_IGHD5-18*01>3_IGHJ4*01 & V3-4_IGLJ1*01 (Fab, V domains shown)
VH: EVQLVQSGAEVKKPGESLKISCKGSGYSFTSYWIGWVRQMPGKGLEWMGIIYPGDSDTRYSPSFQGQVTISADKSISTAYLQWSSLKASDTAMYYCARRGYSYGYDYFDYWGQGTLVTVSS
VL: QTVVTQEPSFSVSPGGTVTLTCGLSSGSVSTSYYPSWYQQTPGQAPRTLIYSTNTRSSGVPDRFSGSILGNKAALTITGAQADDESDYYCVLYMGSGISYVFGTGTKVTVL
notes: Tested as a Fab made in E. coli; also called IGHV5-51*03
- ECL signal [15]: 620
- ECL signal [16]: 1030
- ECL signal [17]: 805
- ECL signal [18]: 558
- ECL signal [19]: 872
